Measurements published in patent publication US20240254227A1 (Alector, published 2024).
Positions count from the first letter of the chain named.

B1: anti-CD300LB antibody CD-11 (antibody, V domains shown)
VH: QIQLVQSGPEVKKPGETVKISCKASGYTLTDYSMHWVMQTPGTGLKWMAWMNTETGEPTYADDFKGRFAFSLETSAGTAYLQIDNLKNEDTATYFCATYGKSYGMKYWGQGTSVTVSS
VL: DIVLTQSPPSLAVSLGQRATISCRATKSVSPYLHWYQQTPGQPPKLLIYLASNLDSGVPARFSGSGSGTDFTLNIHPVEEEDAATYYCQHNKELPPTFGGGTRLEIK
B2: anti-CD300LB antibody CD-12 (antibody, V domains shown)
VH: QIQLVQSGPELKKPGETVKISCKASGYTFTDYSMHWVRQAPGKGLKWMAWINTETGEATHADDFKGRFDFSLDTSASTAYLQIKNLKNEDTGIYFCVCYGSSYGMDYWGQGTSVTVSS
VL: DIVLTQSPASLPVSLGQRATISCRASKSVRTSGASYMHWYQQKPGQPPKLLIYLASNLKSGVPTRFSGSGSGTDFTLNIHPVEEEDAATYYCQHNREVPPTFGGGTKLEIK
B3: anti-CD300LB antibody CD-13 (antibody, V domains shown)
VH: QIQLVQSGPELKKPGETVKISCKASGYTFTDYSMHWVKQAPGKGFKWMAWINTETGAPTHADDFRGRFAFSLETSASTAFLQISNLKTEDTATYFCVTFGKSYGMNYWGQGTSVTVSS
VL: B2 VL with P12S, R30G, T31S, A34S, M37L, K59E, T64A, D74E, R96A
B4: anti-CD300LB antibody CD-14 (antibody, V domains shown)
VH: QIQLVQSGPELKKPGETVKISCKASGYTFTDYSLHWVKQTPEKNLKWMAWINTETGAPTYADDFKGRFAFSLETSSNTAYLLINNLKNEDTATYFCALTMVNYWGQGTTLTVSS
VL: DIVMTQSQKFMSTSVGDRVSVTCKASQNVGIRVAWHQQKPGQSPKTLIYSTSYRYSGVPDRFTGSGSGTEFILTISNVQSEDLAEYFCQQYNSYPYTFGGGTKLEIK
B5: anti-CD300LB antibody CD-15 (antibody, V domains shown)
VH: QIQLVQSGPELKKPGETVKISCQVSGYTFTDYSMHWLKQAPGKGLKWMAWINTETGESTYTDEFKGRFVFSLETSVRTAYLKINNLKNEDTATYFCGTYGSSYGMAYWGQGTSVTVSS
VL: B2 VL with R30S, A34S, M37L, N57K, K59E, T64A, S67R
B6: anti-CD300LB antibody CD-16 (antibody, V domains shown)
VH: QIQLVQSGPELKKPGETVKISCKASGYTFTDYSMHWVKQAPGKGLKWMAWINTETGEPTYADDFRGRFAFSLETSGRTAYLEINNLRNEDTATYFCVTYGSSYGMAYWGQGTSVTVSS
VL: B2 VL with P12A, R30S, T31R, A34Y, M37L, N57K, K59E, T64A, E84A, V98I
B7: anti-CD300LB antibody CD-17 (antibody, V domains shown)
VH: QIQLVQSGPELKKPGETVKISCKASGYTLTDYSMHWVKQAPGKGLKWMGWINTETGEPRYGDDFKGRFAFSLETSASSAYLQINNLKNDDTATYFCATYGRSYGMDFWGQGTSVTVSS
VL: B2 VL with P12A, R30S, T31P, A34H, T64A, E85G, V98L, T106S
B8: anti-CD300LB antibody CD-07 (antibody, V domains shown)
VH: QVQLVQSGAEVKKPGASVKVSCKASGYTFTNYRMHWVRQAPGQGLEWMGWINPNSGGTIYAQKFQGRVTMTRDTSTSTVYMELSSLRSEDTAVYYCARDLDYWGQGTLVTVSS
VL: DIQMTQSPSSLSASVGDRVTITCQASQDISNYLNWYQQKPGKAPKLLIYGASSLQSGVPSRFSGSGSGTDFTLTISSLQPEDFATYYCQQSYSTPWTFGPGTKVEIK
B9: anti-CD300LB antibody CD-05 (antibody, V domains shown)
VH: QVQLVQSGAEVKKPGASVKVSCKASGYTFSRYYINWVRQAPGQGLEWMGWINPNSGGTNYAQKFQGRVTMTRDTSTSTVYMELSSLRSEDTAVYYCTTDQLRFGKTGPYYGMDVWGQGTTVTVSS
VL: B8 VL with Q24R, D28N, S30G, N31T, G50A, T94D, P95T, W96L, P100G
B10: anti-CD300LB antibody CD-01 (antibody, V domains shown)
VH: RVQLQQSGAELVRPGASVTLSCKASGFTFTDFEMHWVKKTPVHGLEWIGAIDPESGNTAYNQKFRGKATLTADKSSSTAYMELRYLTSEDSAVYYCTPLISGADYWGQGTTLTVSS
VL: DVVMTQSPLSLPVSLGDQASISCRSSQSLVHSDGNTYLYWYLQKPGQSPKLLIYKVSNRFSGVPDRFSGSGSGTDFTFKISRVGAEDLGVYFCSQSTHVPWTFGGGTKLEII
B11: anti-CD300LB antibody CD-02 (antibody, V domains shown)
VH: QVQLQQPGAELVRPGSSVKLSCQASGYTFTNYWMHWVRQRPIQGLEWIGNIDPSDSETHYNQKFKDRATLTVDKSSSTAYMQLSSLTSEDSAVYYCARSGVYDDEGGDYWGQGTTLTVSS
VL: ENVLTQSPAIMSASPGEKVTMTCSASSSVSYIHWYQQKSSTSPKLWIYDTSKLASGVPGRFSGSGSGNSYSLTISSMETEDVATYYCFQGSGYPLTFGAGTKLELK
B12: anti-CD300LB antibody CD-06 (antibody, V domains shown)
VH: QVQLVQSGAEVKKPGASVKVSCKASGYTFTTYAVHWVRQAPGQGLEWMGIVNPNSGGTNYAQKFQGRVTMTRDTSTSTVYMELSSLRSEDTAVYYCARDIVPMNNFYNYYYGMDVWGQGTTVTVSS
VL: B8 VL with Q24R, D28S, N31S, G50A, A51T, S53T, S93R, T94I, W96Y, P100Q
B13: anti-CD300LB antibody CD-10 (antibody, V domains shown)
VH: QVQLQQSGPELVRPGVSVKISCKGSGYTFTDYAMHWVKQSHVRSREWIGVIGTYNGHTNYNQKFKGKATMTVDKSSSTAYLELARLTSEDSAIYYCARSGSYYYSMDYWGQGTSVTVSS
VL: QIVLTQSPAIMSASPGEKVTMTCSASSSVNYMHWYQQKSGTSPKRWIYDTSKLSSGVPARFSGSGSGTSYSLTISTMEAEDAATYYCQQWSSNPPMTFGGGTKLEIK
B14: anti-CD300LB antibody CD-03 (antibody, V domains shown)
VH: EVQLQQSGPELVKPGASVKISCKASGYTFTDYYINWVRQSHGKSLECIGDINPNNGGTNYNQKFKGKATLTVDRSSNTAYMEFRSLTFDDSALYYCAAEGAYWGQGTLVTVSA
VL: not shown

Key:
murine CD300E-Fc = biological target: T1, murine CD300E-Fc (mouse); assay: SPR (Carterra LSA), antibody immobilised, Fc fusion at 300 or 600 nM
T1 construct: mouse IgG2a-Fc fusion (R&D Systems); the entry is the whole fusion chain; also called mCD300E; Mouse CD300E-Fc
T1 chain: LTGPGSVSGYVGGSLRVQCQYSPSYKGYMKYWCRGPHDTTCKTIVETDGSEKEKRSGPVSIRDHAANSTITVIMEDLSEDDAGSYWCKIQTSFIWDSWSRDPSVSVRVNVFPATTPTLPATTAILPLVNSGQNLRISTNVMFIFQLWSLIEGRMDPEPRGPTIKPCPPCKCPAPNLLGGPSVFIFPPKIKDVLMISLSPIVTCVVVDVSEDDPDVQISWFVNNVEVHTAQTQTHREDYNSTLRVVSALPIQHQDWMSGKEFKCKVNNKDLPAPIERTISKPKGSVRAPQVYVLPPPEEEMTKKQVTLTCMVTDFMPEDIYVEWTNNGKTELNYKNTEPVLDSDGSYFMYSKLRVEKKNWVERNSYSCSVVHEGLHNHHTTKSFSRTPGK
Experimental: (§1) Binding of mouse anti-CD300LB IgG1 antibodies of the present disclosure to human and murine CD300 orthologs were evaluated by surface plasmon resonance (SPR) using a Carterra LSA instrument (Carterra, Salt Lake City, UT). […] A HC200M sensor chip (Carterra) was activated using the single channel flow cell with a 7-minute injection of a 1:1:1 mixture of 100 mM MES pH 5.5, 100 mM sulfo-NHS, 400 mM EDC (all reconstituted in MES pH 5.5; 100 μL of each mixed in vial immediately before running assay). After switching to the multi-channel array flow cell, the antibodies were injected over the activated chip in a 96-spot array for 10 minutes. The remaining unconjugated active groups on the chip were then blocked by injecting 1M Ethanolamine pH 8.5 (Carterra) for 7 minutes using the single channel flow cell. After priming with running buffer (HBS-TE, Carterra) with 0.5 mg/ml BSA (Sigma), the immobilized anti-CD300LB antibodies were tested for their ability to bind human and mouse recombinant CD300LB extracellular domains. Human CD300 family members and mouse CD300A were hIgG1-Fc fusions, while mouse CD300LB, mouse CD300C, mouse CD300D, and mouse CD300E were mouse IgG2a-Fc fusions (R&D Systems). Binding was assessed by injecting each analyte over the entire antibody array using the single channel flow cell. CD300 analytes were diluted to 300 nM or 600 nM in running buffer and injected in series without regeneration. Two or three buffer blanks were run between each mouse or human ortholog, respectively. Data were processed and analyzed using NextGenKIT high-throughput kinetics analysis software (Carterra).
(§2) Results of anti-CD300LB antibody binding to murine CD300 family members is provided below in Table 8.

murine CD300C-Fc = biological target: T2, murine CD300C-Fc (mouse); assay: as above
T2 construct: mouse IgG2a-Fc fusion (R&D Systems); the entry is the whole fusion chain; also called mCD300C; Mouse CD300C-Fc
T2 chain: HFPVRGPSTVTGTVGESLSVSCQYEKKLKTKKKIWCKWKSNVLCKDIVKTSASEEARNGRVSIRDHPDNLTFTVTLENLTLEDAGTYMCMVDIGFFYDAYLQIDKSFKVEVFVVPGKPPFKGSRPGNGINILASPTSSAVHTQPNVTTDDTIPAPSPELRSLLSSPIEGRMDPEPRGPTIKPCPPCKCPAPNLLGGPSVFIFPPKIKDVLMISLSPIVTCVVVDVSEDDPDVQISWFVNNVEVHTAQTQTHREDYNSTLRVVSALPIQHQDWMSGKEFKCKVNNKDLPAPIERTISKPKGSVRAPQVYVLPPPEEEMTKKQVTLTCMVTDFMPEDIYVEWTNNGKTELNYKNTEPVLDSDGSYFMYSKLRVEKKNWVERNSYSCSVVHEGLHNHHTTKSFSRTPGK
Experimental: as §1, §2

[1] = biological target: T3, human CD300LB transiently expressed on HEK293 cells (human, UniProt A8K4G0 18-201); assay: flow cytometry, transfected HEK293, 10 ug/mL, isotype subtracted
T3 construct: CD300LB expression constructs'; also called huCD300LB HEK293
T3 sequence: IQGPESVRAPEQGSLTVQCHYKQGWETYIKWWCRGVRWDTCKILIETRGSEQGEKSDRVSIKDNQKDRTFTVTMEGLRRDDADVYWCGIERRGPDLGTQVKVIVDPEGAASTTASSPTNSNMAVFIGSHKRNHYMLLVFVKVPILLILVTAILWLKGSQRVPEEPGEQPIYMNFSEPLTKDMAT
Experimental: In addition, supernatants or purified antibodies were tested for species crossreactivity by comparing the binding of human, mouse, and cynomolgous monkey CD300LB expressing cell lines. HEK293 were transfected with […] of human, mouse, and cyno CD300LB expression constructs using the Mirus system in 10 cm tissue culture dishes. Cells were then incubated for 24 hours in complete medium. Cells were harvested by incubation in TrypLE Express, then washed with PBS and labeled with 200 nM CFSE, 500 nM VioBlue, or a combination of the two to discriminate between human, mouse, and cyno CD300LB expressing cells. Cells were washed thoroughly with PBS containing 2% fetal bovine serum then resuspended at a total of 240,000 cells per well. Purified antibodies at 10 μg/mL were added and incubated for one hour before the cells were washed again and stained with an APC-labeled anti-human or anti-mouse secondary. Cells were then analyzed using a BD FACSCanto II. Antibodies were analyzed for specific binding to human, mouse, or cyno CD300LB by FlowJo software by gating on live cells, then the APC gMFI calculated for each labeled population minus the gMFI of the isotype control.

Binder	SPR binding (control subtracted) (murine CD300E-Fc)	SPR binding (control subtracted) (murine CD300C-Fc)	gMFI [1] [gMFI]
B1	7.4	–	–
B2	-0.6	2.5	–
B3	4.5	43.6	–
B4	3.6	17.9	–
B5	0.8	13.3	–
B6	8.6	34.5	–
B7	-0.7	1.5	–
B8	–	–	686
B9	–	–	933
B10	–	–	166
B11	–	–	578
B12	–	–	314
B13	11.3	–	–
B14	–	–	38.7
